Experimental data as given in PMC5638241, “Chlorophyte aspartyl aminopeptidases: Ancient origins, expanded families, new locations, and secondary functions” (PLoS ONE, 2017).

Columns and labels:
[1] = biological target: Arabidopsis thaliana aspartyl aminopeptidase 2, mature (without transit peptide), with N-terminal His6 (His6-DAP2) (Arabidopsis thaliana); experiment: native gel or EMSA; series of native polyacrylamide gels (4, 4.5, 5 and 6% acrylamide) of Ni-NTA-purified His6-DAPs; masses from relative mobilities and retardation coefficients (Hedrick and Smith; Bryan), BSA and urease as mass standards
purified protein = substrate: N[C@@H](CC(=O)O)C(=O)Nc1ccc([N+](=O)[O-])cc1; experiment: purified protein; format: biochemical, Arabidopsis thaliana; conditions: 50 mM Tris-HCl pH 8.0, enzyme pre-activated with 0.5 mM MnCl2
[2] = biological target: the molecule itself; experiment: native gel or EMSA; series of native polyacrylamide gels (4, 4.5, 5 and 6% acrylamide) of Ni-NTA-purified His6-DAPs; masses from relative mobilities and retardation coefficients (Hedrick and Smith; Bryan), BSA and urease as mass standards

stoichiometry N [1]	Molecule	Km (purified protein) [µM]	stoichiometry N [2]	kcat/Km (purified protein) [M⁻¹ s⁻¹]
12	Arabidopsis thaliana aspartyl aminopeptidase 2, mature (without transit peptide), with N-terminal His6 (His6-DAP2) (enzyme)			
	Arabidopsis thaliana aspartyl aminopeptidase 1 with N-terminal His6 (His6-DAP1) (enzyme, UniProt Q9LST0 1-477, looked up, AtDAP1 (At5g60160), M18 aspartyl aminopeptidase of Arabidopsis thaliana ecotype Columbia; entire coding region of the DAP1 cDNA (nucleotides 86 to 1519 of NM_125409) cloned into pET28; Monomer 54.6 kDa as printed; also called AtDAP1; At5g60160; source: E. coli BL21[DE3]pLys, purified (Ni-NTA, 100-kDa MWCO Centricon); not shown: His6, N-terminal, kept; copies: 12) MDKSSLVSDFLSFLNASPTAFHAVDESKRRLLKAGYEQISERDDWKLEAGKKYFFTRNYSTIVAFAIGHKYVAGNGFHIIGAHTDSPCLKLKPVSKITKGGCLEVGVQTYGGGLWYTWFDRDLTVAGRVILKEEKAGSVSYSHRLVRIEDPIMRIPTLAIHLDRNVNTEGFKPNTQTHLVPVLATAIKAELNKTPAESGEHDEGKKCAETSSKSKHHPLLMEIIANALGCKPEEICDFELQACDTQPSILAGAAKEFIFSGRLDNLCMSFCSLKALIDATSSGSDLEDESGIRMVALFDHEEVGSNSAQGAGSPVMIDAMSHITSCFSSDTKVLKKAIQKSLLVSADMAHALHPNFMDKHEENHQPKMHGGLVIKHNANQRYATNAVTSFVFREIAEKHNLPVQDFVVRNDMGCGSTIGPILASSVGIRTVDVGAPQLSMHSIREMCAADDVKHSYEHFKAFFQEFTHLDAKLTIDV	1250	12	
	His6-DAP2 (mature AtDAP2) (Arabidopsis thaliana) (protein, mature form without 63-residue transit peptide, N-terminal His6 fusion (pET28), E. coli BL21(DE3)pLysS, Ni-NTA; no tag removal mentioned) ASIVGDLLDYLNESWTQFHATAEAKRQLLAAGFDLLSENEDWNLKPGGRYFFTRNMSCLVAFAVGEKYVPGNGFHAIAAHTDSPCLKLKPKSASSKSGYLMVNVQTYGGGLWHTWFDRDLSVAGRAIVRASDGSFVHRLVKVKRPLLRVPTLAIHLDRTVNSDGFKPNLETQLVPLLATKSDESSAESKDKNVSSKDAHHPLLMQILSDDLDCKVEDIVSLELNICDTQPSCLGGANNEFIFSGRLDNLASSFCALRALIDSCESSENLSTEHDIRMIALFDNEEVGSDSCQGAGAPTMFQAMRRIVSSLGNKQVTECTFDRAIRKSFLVSADMAHGVHPNFADKHEENHRPQLHKGLVIKHNANQRYATSGITSFLFKEVAKLHDLPIQEFVVRNDMGCGSTIGPILASGVGIRTVDCGIAQLSMHSVREICGTDDIDIAYRHFKAFYRSFSSVDKKLVVDD	210		3.47e+07
